Source: US20180118786A1 (ECOLE POLYTECHNIQUE FEDERALE DE LAUSANNE EPFL, published 2018)
Starred links: 1 amine or outer side, 2 acyl side, 3 side chain; linkers in the order of their positions; H or OH if unused. Positions of bridges follow the written chain, without caps; N, C: chain ends. Non-standard residues stand in square brackets, D forms with d. No end group written: not given here. TATA = O=C(CC[*:1])N1CN(C(=O)CC[*:2])CN(C(=O)CC[*:3])C1; Phe(4-NO2) = N[C@@H](Cc1ccc([N+](=O)[O-])cc1)C(=O)O; Phe(3-F) = N[C@@H](Cc1cccc(F)c1)C(=O)O; Phe(3-Me) = Cc1cccc(C[C@H](N)C(=O)O)c1; Phe(4-F) = N[C@@H](Cc1ccc(F)cc1)C(=O)O; 1Nal = N[C@@H](Cc1cccc2ccccc12)C(=O)O; Phe(2-F) = N[C@@H](Cc1ccccc1F)C(=O)O; β3hR = N=C(N)NCCC[C@H](N)CC(=O)O; 3Pal = N[C@@H](Cc1cccnc1)C(=O)O

molecular target: T1, human β-FXIIa (HFXIIAB; Molecular Innovations) (human, UniProt P00748 354-362; P00748 373-615, limits assumed); assay: protease inhibition assay (Table in FIG. 6)
T1 construct: domain: catalytic domain; Bought; also called human b-FXIIa; human FXIIa
T1 sequence (P00748 373-615 limits assumed, one chain of several): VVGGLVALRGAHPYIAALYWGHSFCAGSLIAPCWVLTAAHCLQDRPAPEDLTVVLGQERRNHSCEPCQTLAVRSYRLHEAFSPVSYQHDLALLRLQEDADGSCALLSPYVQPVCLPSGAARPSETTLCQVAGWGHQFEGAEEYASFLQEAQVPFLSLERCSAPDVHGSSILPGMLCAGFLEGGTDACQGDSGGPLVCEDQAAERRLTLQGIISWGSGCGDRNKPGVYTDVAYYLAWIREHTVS

Ki [nM] | Binder
< 50 | H-RC[3‑benzothienylalanine]RLPCRQLRCRW-NH2 (linker 2-7-12 via TATA) [FXII618 variant with F in position three replaced by 3-benzothienylalanine]
< 100 | RCLRLPCRQLRCRW-NH2 (linker 2-7-12 via TATA; N-terminus assumed; SMILES CC(C)C[C@@H]1NC(=O)[C@H](CCC(N)=O)NC(=O)[C@H](CCCNC(=N)N)NC(=O)[C@@H]2CSCCC(=O)N3CN(CN(C3)C(=O)CCSC[C@H](NC(=O)[C@@H](N)CCCNC(=N)N)C(=O)N[C@@H](CC(C)C)C(=O)N[C@@H](CCCNC(=N)N)C(=O)N[C@@H](CC(C)C)C(=O)N3CCC[C@H]3C(=O)N2)C(=O)CCSC[C@@H](C(=O)N[C@@H](CCCNC(=N)N)C(=O)N[C@@H](Cc2c[nH]c3ccccc23)C(N)=O)NC(=O)[C@H](CCCNC(=N)N)NC1=O, Number tied to residue by the order of the list) [peptide 5 (peptide 2, Phe3 to leucine)]

More lines, now with the values behind:

Binder | Ki [nM]
RC[Phe(3-F)]RLPCRQLRCRW-NH2 (linker 2-7-12 via TATA) [peptide 57 (peptide 2, fluorine in meta-position of Phe3)] | < 100
RCYRLPCRQLRCRW-NH2 (linker 2-7-12 via TATA; N-terminus assumed; SMILES CC(C)C[C@@H]1NC(=O)[C@H](CCC(N)=O)NC(=O)[C@H](CCCNC(=N)N)NC(=O)[C@@H]2CSCCC(=O)N3CN(CN(C3)C(=O)CCSC[C@H](NC(=O)[C@@H](N)CCCNC(=N)N)C(=O)N[C@@H](Cc3ccc(O)cc3)C(=O)N[C@@H](CCCNC(=N)N)C(=O)N[C@@H](CC(C)C)C(=O)N3CCC[C@H]3C(=O)N2)C(=O)CCSC[C@@H](C(=O)N[C@@H](CCCNC(=N)N)C(=O)N[C@@H](Cc2c[nH]c3ccccc23)C(N)=O)NC(=O)[C@H](CCCNC(=N)N)NC1=O, Number tied to residue by the order of the list) [peptide 4 (peptide 2, Phe3 to tyrosine)] | < 100
RCPRLPCRQLRCRW-NH2 (linker 2-7-12 via TATA; N-terminus assumed; SMILES CC(C)C[C@@H]1NC(=O)[C@H](CCC(N)=O)NC(=O)[C@H](CCCNC(=N)N)NC(=O)[C@@H]2CSCCC(=O)N3CN(CN(C3)C(=O)CCSC[C@H](NC(=O)[C@@H](N)CCCNC(=N)N)C(=O)N3CCC[C@H]3C(=O)N[C@@H](CCCNC(=N)N)C(=O)N[C@@H](CC(C)C)C(=O)N3CCC[C@H]3C(=O)N2)C(=O)CCSC[C@@H](C(=O)N[C@@H](CCCNC(=N)N)C(=O)N[C@@H](Cc2c[nH]c3ccccc23)C(N)=O)NC(=O)[C@H](CCCNC(=N)N)NC1=O, Number tied to residue by the order of the list) [peptide 9 (peptide 2, Phe3 to proline)] | < 100
H-RC[1Nal]RLPCRQLRCRW-NH2 (linker 2-7-12 via TATA) [FXII618 variant with F in position three replaced by 1-naphthylalanine] | < 50

molecular target: T1, human β-FXIIa (HFXIIAB; Molecular …); assay: protease inhibition assay

Ki [nM] | Binder
0.36 | H-[dR][dS]C[Phe(4-F)]RLPCHQL[β3hR]CR-NH2 (linker 3-8-13 via TATA; SMILES CC(C)C[C@@H]1NC(=O)[C@H](CCC(N)=O)NC(=O)[C@H](Cc2c[nH]cn2)NC(=O)[C@@H]2CSCCC(=O)N3CN(CN(C3)C(=O)CCSC[C@H](NC(=O)[C@@H](CO)NC(=O)[C@H](N)CCCNC(=N)N)C(=O)N[C@@H](Cc3ccc(F)cc3)C(=O)N[C@@H](CCCNC(=N)N)C(=O)N[C@@H](CC(C)C)C(=O)N3CCC[C@H]3C(=O)N2)C(=O)CCSC[C@@H](C(=O)N[C@@H](CCCNC(=N)N)C(N)=O)NC(=O)C[C@H](CCCNC(=N)N)NC1=O, rs is D-Arg-D-Ser; F^4F is 4-fluoro-phenylalanine) [JS33 (rsCF^4…^bCR)]

molecular target: T1, human β-FXIIa (HFXIIAB; Molecular …); assay: protease inhibition assay, fluorogenic substrate

Ki [nM] | Binder
26 | RCWRLPCRQLRCRW-NH2 (linker 2-7-12 via TATA; N-terminus assumed; SMILES CC(C)C[C@@H]1NC(=O)[C@H](CCC(N)=O)NC(=O)[C@H](CCCNC(=N)N)NC(=O)[C@@H]2CSCCC(=O)N3CN(CN(C3)C(=O)CCSC[C@H](NC(=O)[C@@H](N)CCCNC(=N)N)C(=O)N[C@@H](Cc3c[nH]c4ccccc34)C(=O)N[C@@H](CCCNC(=N)N)C(=O)N[C@@H](CC(C)C)C(=O)N3CCC[C@H]3C(=O)N2)C(=O)CCSC[C@@H](C(=O)N[C@@H](CCCNC(=N)N)C(=O)N[C@@H](Cc2c[nH]c3ccccc23)C(N)=O)NC(=O)[C@H](CCCNC(=N)N)NC1=O) [peptide 3 (peptide 2, Phe3 to tryptophan)]
8.4 | RC[3Pal]RLPCRQLRCRW-NH2 (linker 2-7-12 via TATA; N-terminus assumed; SMILES CC(C)C[C@@H]1NC(=O)[C@H](CCC(N)=O)NC(=O)[C@H](CCCNC(=N)N)NC(=O)[C@@H]2CSCCC(=O)N3CN(CN(C3)C(=O)CCSC[C@H](NC(=O)[C@@H](N)CCCNC(=N)N)C(=O)N[C@@H](Cc3cccnc3)C(=O)N[C@@H](CCCNC(=N)N)C(=O)N[C@@H](CC(C)C)C(=O)N3CCC[C@H]3C(=O)N2)C(=O)CCSC[C@@H](C(=O)N[C@@H](CCCNC(=N)N)C(=O)N[C@@H](Cc2c[nH]c3ccccc23)C(N)=O)NC(=O)[C@H](CCCNC(=N)N)NC1=O) [peptide 54 (peptide 2, carbon replaced with nitrogen in meta-position of the phenyl ring of Phe3)]
4.5 | RC[Phe(4-NO2)]RLPCRQLRCRW-NH2 (linker 2-7-12 via TATA; also: description names 2-nitro-phenylalanine, example says para) [peptide 60 (peptide 2, nitro group in para position of Phe3)]

The remaining lines, values behind:

Binder | Ki [nM]
RC[Phe(4-F)]RLPCRQLRCRW-NH2 (linker 2-7-12 via TATA) [peptide 58 (peptide 2, fluorine in para-position of Phe3)] | 2.31
RCFRLPCRQLRC-NH2 (linker 2-7-12 via TATA; N-terminus assumed; SMILES CC(C)C[C@@H]1NC(=O)[C@H](CCC(N)=O)NC(=O)[C@H](CCCNC(=N)N)NC(=O)[C@@H]2CSCCC(=O)N3CN(CN(C3)C(=O)CCSC[C@H](NC(=O)[C@@H](N)CCCNC(=N)N)C(=O)N[C@@H](Cc3ccccc3)C(=O)N[C@@H](CCCNC(=N)N)C(=O)N[C@@H](CC(C)C)C(=O)N3CCC[C@H]3C(=O)N2)C(=O)CCSC[C@@H](C(N)=O)NC(=O)[C@H](CCCNC(=N)N)NC1=O) [peptide 63 (bicyclic peptide without the C-terminal arginine)] | 28.8
CFRLPCRQLRCR-NH2 (linker 1-6-11 via TATA; N-terminus assumed; SMILES CC(C)C[C@@H]1NC(=O)[C@H](CCC(N)=O)NC(=O)[C@H](CCCNC(=N)N)NC(=O)[C@@H]2CSCCC(=O)N3CN(CN(C3)C(=O)CCSC[C@H](N)C(=O)N[C@@H](Cc3ccccc3)C(=O)N[C@@H](CCCNC(=N)N)C(=O)N[C@@H](CC(C)C)C(=O)N3CCC[C@H]3C(=O)N2)C(=O)CCSC[C@@H](C(=O)N[C@@H](CCCNC(=N)N)C(N)=O)NC(=O)[C@H](CCCNC(=N)N)NC1=O) [peptide 62 (bicyclic peptide without the N-terminal arginine)] | 932
RC[Phe(2-F)]RLPCRQLRCRW-NH2 (linker 2-7-12 via TATA; N-terminus assumed; SMILES CC(C)C[C@@H]1NC(=O)[C@H](CCC(N)=O)NC(=O)[C@H](CCCNC(=N)N)NC(=O)[C@@H]2CSCCC(=O)N3CN(CN(C3)C(=O)CCSC[C@H](NC(=O)[C@@H](N)CCCNC(=N)N)C(=O)N[C@@H](Cc3ccccc3F)C(=O)N[C@@H](CCCNC(=N)N)C(=O)N[C@@H](CC(C)C)C(=O)N3CCC[C@H]3C(=O)N2)C(=O)CCSC[C@@H](C(=O)N[C@@H](CCCNC(=N)N)C(=O)N[C@@H](Cc2c[nH]c3ccccc23)C(N)=O)NC(=O)[C@H](CCCNC(=N)N)NC1=O) [peptide 56 (peptide 2, fluorine in ortho-position of Phe3)] | 13.1
RCFRLPCRQLRCRW-NH2 (linker 2-7-12 via TATA; N-terminus assumed; SMILES CC(C)C[C@@H]1NC(=O)[C@H](CCC(N)=O)NC(=O)[C@H](CCCNC(=N)N)NC(=O)[C@@H]2CSCCC(=O)N3CN(CN(C3)C(=O)CCSC[C@H](NC(=O)[C@@H](N)CCCNC(=N)N)C(=O)N[C@@H](Cc3ccccc3)C(=O)N[C@@H](CCCNC(=N)N)C(=O)N[C@@H](CC(C)C)C(=O)N3CCC[C@H]3C(=O)N2)C(=O)CCSC[C@@H](C(=O)N[C@@H](CCCNC(=N)N)C(=O)N[C@@H](Cc2c[nH]c3ccccc23)C(N)=O)NC(=O)[C@H](CCCNC(=N)N)NC1=O) [peptide 2 (FXII618 with a tryptophan appended to the C-terminus)] | 26
RCFKLPCRQLRCRW-NH2 (linker 2-7-12 via TATA; N-terminus assumed; SMILES CC(C)C[C@@H]1NC(=O)[C@H](CCC(N)=O)NC(=O)[C@H](CCCNC(=N)N)NC(=O)[C@@H]2CSCCC(=O)N3CN(CN(C3)C(=O)CCSC[C@H](NC(=O)[C@@H](N)CCCNC(=N)N)C(=O)N[C@@H](Cc3ccccc3)C(=O)N[C@@H](CCCCN)C(=O)N[C@@H](CC(C)C)C(=O)N3CCC[C@H]3C(=O)N2)C(=O)CCSC[C@@H](C(=O)N[C@@H](CCCNC(=N)N)C(=O)N[C@@H](Cc2c[nH]c3ccccc23)C(N)=O)NC(=O)[C@H](CCCNC(=N)N)NC1=O) [peptide 10 (peptide 2, Arg4 to lysine)] | 283
RC[Phe(3-Me)]RLPCRQLRCRW-NH2 (linker 2-7-12 via TATA; N-terminus assumed; SMILES Cc1cccc(C[C@@H]2NC(=O)[C@@H](NC(=O)[C@@H](N)CCCNC(=N)N)CSCCC(=O)N3CN4CN(C3)C(=O)CCSC[C@H](NC(=O)[C@@H]3CCCN3C(=O)[C@H](CC(C)C)NC(=O)[C@H](CCCNC(=N)N)NC2=O)C(=O)N[C@@H](CCCNC(=N)N)C(=O)N[C@@H](CCC(N)=O)C(=O)N[C@@H](CC(C)C)C(=O)N[C@@H](CCCNC(=N)N)C(=O)N[C@H](C(=O)N[C@@H](CCCNC(=N)N)C(=O)N[C@@H](Cc2c[nH]c3ccccc23)C(N)=O)CSCCC4=O)c1) [peptide 52 (peptide 2, methyl group in meta-position of the phenyl ring of Phe3)] | 10.4

molecular target: T1, human β-FXIIa (HFXIIAB; Molecular …); assay: protease inhibition assay; remark: another data set of the same source

fold reduction of activity vs peptide 2 [fold] | Binder
> 2 | RCYRLPCRQLRCRW-NH2 (linker 2-7-12 via TATA; N-terminus assumed; SMILES CC(C)C[C@@H]1NC(=O)[C@H](CCC(N)=O)NC(=O)[C@H](CCCNC(=N)N)NC(=O)[C@@H]2CSCCC(=O)N3CN(CN(C3)C(=O)CCSC[C@H](NC(=O)[C@@H](N)CCCNC(=N)N)C(=O)N[C@@H](Cc3ccc(O)cc3)C(=O)N[C@@H](CCCNC(=N)N)C(=O)N[C@@H](CC(C)C)C(=O)N3CCC[C@H]3C(=O)N2)C(=O)CCSC[C@@H](C(=O)N[C@@H](CCCNC(=N)N)C(=O)N[C@@H](Cc2c[nH]c3ccccc23)C(N)=O)NC(=O)[C@H](CCCNC(=N)N)NC1=O, Number tied to residue by the order of the list) [peptide 4 (peptide 2, Phe3 to tyrosine)]
10 | RCFKLPCRQLRCRW-NH2 (linker 2-7-12 via TATA; N-terminus assumed; SMILES CC(C)C[C@@H]1NC(=O)[C@H](CCC(N)=O)NC(=O)[C@H](CCCNC(=N)N)NC(=O)[C@@H]2CSCCC(=O)N3CN(CN(C3)C(=O)CCSC[C@H](NC(=O)[C@@H](N)CCCNC(=N)N)C(=O)N[C@@H](Cc3ccccc3)C(=O)N[C@@H](CCCCN)C(=O)N[C@@H](CC(C)C)C(=O)N3CCC[C@H]3C(=O)N2)C(=O)CCSC[C@@H](C(=O)N[C@@H](CCCNC(=N)N)C(=O)N[C@@H](Cc2c[nH]c3ccccc23)C(N)=O)NC(=O)[C@H](CCCNC(=N)N)NC1=O) [peptide 10 (peptide 2, Arg4 to lysine)]
> 2 | RCLRLPCRQLRCRW-NH2 (linker 2-7-12 via TATA; N-terminus assumed; SMILES CC(C)C[C@@H]1NC(=O)[C@H](CCC(N)=O)NC(=O)[C@H](CCCNC(=N)N)NC(=O)[C@@H]2CSCCC(=O)N3CN(CN(C3)C(=O)CCSC[C@H](NC(=O)[C@@H](N)CCCNC(=N)N)C(=O)N[C@@H](CC(C)C)C(=O)N[C@@H](CCCNC(=N)N)C(=O)N[C@@H](CC(C)C)C(=O)N3CCC[C@H]3C(=O)N2)C(=O)CCSC[C@@H](C(=O)N[C@@H](CCCNC(=N)N)C(=O)N[C@@H](Cc2c[nH]c3ccccc23)C(N)=O)NC(=O)[C@H](CCCNC(=N)N)NC1=O, Number tied to residue by the order of the list) [peptide 5 (peptide 2, Phe3 to leucine)]
